Laboratory results taken from the supplement of paper PMC10567573.

Experiment: protein stability index of a GFP-peptide fusion (GPS, HEK-293T) (PSI 1-6); higher = more stable
[1] = parent: NP_002788.1, c terminus: native
[2] = parent: NP_006221.1, c terminus: native
[3] = parent: NP_116010.1, c terminus: native
[4] = parent: NP_009172.2, c terminus: native
[5] = parent: NP_015628.1, c terminus: native

B1: ADAMTS4 WT (peptide)
chain: HVDPEEPWSPCSARFITDFLDNGY
protein stability index (parent: IOH81847_67, c terminus: a fixed tail appended): 1.84

B2: PTPN9 WT (peptide)
chain: LKGAFPARLKKVLIVGAPIWFRVP
protein stability index (parent: IOH82149_30, c terminus: a fixed tail appended): 2.96

B3: MATN2 WT (peptide)
chain: VNVPGSFVCQCYSGYALAEDGKRC
protein stability index (parent: IOH81883_50, c terminus: a fixed tail appended): 1.99

B4: LOXL2 WT (peptide)
chain: HISSCKLGPQVSLDPMKNVTCENG
protein stability index (parent: IOH81790_46, c terminus: a fixed tail appended): 3.95

B5: PTPRD WT (peptide)
chain: ITWFKDFLPVDTSNNNGRIKQLRS
protein stability index (parent: IOH82190_27, c terminus: a fixed tail appended): 1.83

B6: PTPN9 WT (peptide)
chain: NKWTVQYNVSPLSWNVAVKFLMAR
protein stability index (parent: IOH82149_6, c terminus: a fixed tail appended): 2.09

B7: PSMB5 WT (peptide)
chain: DGWIRVSSDNVADLHEKYSGSTP
protein stability index [1]: 2.42

B8: PPEF2 WT (peptide)
chain: FIPSSHNDRDFLTRIFTEDRFAQD
protein stability index (parent: IOH82202_13, c terminus: a fixed tail appended): 2.05

B9: PTPN9 WT (peptide)
chain: TQHLPRECLPENLGGYVKIDLATW
protein stability index (parent: IOH82149_38, c terminus: a fixed tail appended): 1.88

B10: TRIB1 WT (peptide)
chain: SYVRSRKRLREEEAARLFKQIVSA
protein stability index (parent: IOH82269_29, c terminus: a fixed tail appended): 2.13

B11: PPEF2 WT (peptide)
chain: DHSGFISLDEFRQTWKLFSSHMNI
protein stability index (parent: IOH82202_112, c terminus: a fixed tail appended): 1.7

B12: RIPK4 WT (peptide)
chain: RERMELLEEAKKMEMAKFRYILPV
protein stability index (parent: IOH82264_11, c terminus: a fixed tail appended): 2.38

B13: LOXL2 WT (peptide)
chain: FSPDGPSRFRKAYKPEQPLVRLRG
protein stability index (parent: IOH81790_52, c terminus: a fixed tail appended): 1.81

B14: POLD2 WT (peptide)
chain: CQPISFSGFGAEDDDLGGLGLGP
protein stability index [2]: 2.27

B15: BEX2 addA (peptide)
chain: HSLRAVSTDPPHHDHHDEFCLMPA
protein stability index [3]: 3.18

B16: SMOC2 WT (peptide)
chain: DCAGSPQKPLCASDGRTFLSRCEF
protein stability index (parent: IOH81799_8, c terminus: a fixed tail appended): 2.54

B17: ADAMTS4 WT (peptide)
chain: SFRKFRYGYNNVVTIPAGATHILV
protein stability index (parent: IOH81847_116, c terminus: a fixed tail appended): 2.6

B18: SNF8 addT (peptide)
chain: LPALFTDLYSQEITAEEAREALPT
protein stability index [4]: 3.79

B19: CSNK1G1 WT (peptide)
chain: GSLPWQGLKADTLKERYQKIGDTK
protein stability index (parent: IOH82133_42, c terminus: a fixed tail appended): 4.1

B20: PTPN9 WT (peptide)
chain: IDFLRVVRNQQSLAVSNMGARSKG
protein stability index (parent: IOH82149_81, c terminus: a fixed tail appended): 2.4

B21: PTPRD WT (peptide)
chain: PVVSMDLDPQPITDEEEGLIWVVG
protein stability index (parent: IOH82190_140, c terminus: a fixed tail appended): 3.88

B22: PTPN9 WT (peptide)
chain: ILFSLPPALDWDSVHVPGPHAMTI
protein stability index (parent: IOH82149_45, c terminus: a fixed tail appended): 2.54

B23: MATN2 WT (peptide)
chain: FSLKTFKRKSEVERAVKRMRHLST
protein stability index (parent: IOH81883_19, c terminus: a fixed tail appended): 2.06

B24: POLD2 addT (peptide)
chain: CQPISFSGFGAEDDDLGGLGLGPT
protein stability index [2]: 2.6

B25: RIPK4 WT (peptide)
chain: VIDLFDEQGLSALHLAAQGRHAQT
protein stability index (parent: IOH82264_122, c terminus: a fixed tail appended): 2.72

B26: PPFIA4 WT (peptide)
chain: PGVHRRYSALREESAKDWETSPLP
protein stability index (parent: IOH82170_4, c terminus: a fixed tail appended): 4.19

B27: SNF8 WT (peptide)
chain: LPALFTDLYSQEITAEEAREALP
protein stability index [4]: 2.74

B28: PTPRD WT (peptide)
chain: FICQATGDPRPKIVWNKKGKKVSN
protein stability index (parent: IOH82190_8, c terminus: a fixed tail appended): 2.13

B29: PTPRD WT (peptide)
chain: LTKLREMGREKCHQYWPAERSARY
protein stability index (parent: IOH82190_223, c terminus: a fixed tail appended): 2.36

B30: SMOC2 WT (peptide)
chain: PALETQPQGDEEDIASRYPTLWTE
protein stability index (parent: IOH81799_32, c terminus: a fixed tail appended): 4.26

B31: PPEF2 WT (peptide)
chain: AFKAAALIQRWYRRYVARLEMRRR
protein stability index (parent: IOH82202_4, c terminus: a fixed tail appended): 3.14

B32: PSMB5 addT (peptide)
chain: DGWIRVSSDNVADLHEKYSGSTPT
protein stability index [1]: 3.53

B33: CDKL4 WT (peptide)
chain: AVKKFVESEDDPVVKKIALREIRM
protein stability index (parent: IOH82195_6, c terminus: a fixed tail appended): 2.87

B34: TRPA1 addA (peptide)
chain: EQRNSRWNTVLRAVKAKTHHLEPA
protein stability index [5]: 4.26

B35: TRPA1 WT (peptide)
chain: EQRNSRWNTVLRAVKAKTHHLEP
protein stability index [5]: 3.03

B36: TRIB1 WT (peptide)
chain: EIGTSDQIVPEYQEDSDISSFFC
protein stability index (parent: IOH82269_63, c terminus: native): 2.87

B37: TRPA1 addT (peptide)
chain: EQRNSRWNTVLRAVKAKTHHLEPT
protein stability index [5]: 4.19

B38: PTPRD WT (peptide)
chain: MVHVARLLLLLLTFFLRTDAETPP
protein stability index (parent: IOH82190_1, c terminus: a fixed tail appended): 2.92

B39: SMOC2 WT (peptide)
chain: QKPLCASDGRTFLSRCEFQRAKCK
protein stability index (parent: IOH81799_9, c terminus: a fixed tail appended): 2.71

B40: PSMB5 addA (peptide)
chain: DGWIRVSSDNVADLHEKYSGSTPA
protein stability index [1]: 2.51

B41: MATN2 WT (peptide)
chain: TDDSYSCHCLKGFTLNPDKKTCRR
protein stability index (parent: IOH81883_64, c terminus: a fixed tail appended): 2.25

B42: EMID1 WT (peptide)
chain: FTETNNHWPQGPTGPPGPPGPMGP
protein stability index (parent: IOH81855_48, c terminus: a fixed tail appended): 2.31

B43: MATN2 WT (peptide)
chain: FIVDILQFLDIGPDVTRVGLLQYG
protein stability index (parent: IOH81883_14, c terminus: a fixed tail appended): 2.92

B44: LOXL2 WT (peptide)
chain: RLLRFSSQIHNNGQSDFRPKNGRH
protein stability index (parent: IOH81790_100, c terminus: a fixed tail appended): 2.72

B45: BEX2 WT (peptide)
chain: HSLRAVSTDPPHHDHHDEFCLMP
protein stability index [3]: 2.48

B46: SNF8 addA (peptide)
chain: LPALFTDLYSQEITAEEAREALPA
protein stability index [4]: 3.42

B47: PPFIA4 WT (peptide)
chain: VMTLPSDLRKHRRKLLSPVSREEN
protein stability index (parent: IOH82170_31, c terminus: a fixed tail appended): 3.53

B48: PTPRD WT (peptide)
chain: ELDELLKEISRKRRSIRYGREVEL
protein stability index (parent: IOH82190_126, c terminus: a fixed tail appended): 2.18

B49: RIPK4 WT (peptide)
chain: VSVNAQTLDGRTPLHLAAQRGHYR
protein stability index (parent: IOH82264_100, c terminus: a fixed tail appended): 3.37

B50: RIPK4 WT (peptide)
chain: AAWQGHLPIVKLLAKQPGVSVNAQ
protein stability index (parent: IOH82264_97, c terminus: a fixed tail appended): 2.35

B51: POLD2 addA (peptide)
chain: CQPISFSGFGAEDDDLGGLGLGPA
protein stability index [2]: 2.54

B52: PPFIA4 WT (peptide)
chain: YAGNLHESGVHGALLALDENFDHN
protein stability index (parent: IOH82170_95, c terminus: a fixed tail appended): 2.51
